# Assay results as given in patent publication US20210162028A1, “Methods for Inducing Intermittent Fasting and Modulating Autophagy” (The Hong Kong Polytechnic University, priority 2019, published 2021).
# B1: ADI-ABD: arginine deiminase fused with albumin binding domain (SEQ ID NO: 107) (protein)
# chain: MHHHHHHDEAVDANSLAEAKVLANRELDKYGVSDYYKNLINNAKTVEGVKALIDEILAALPSGSNNNNNNGSGGSVFDSKFKGIHVYSEIGELESVLVHEPGREIDYITPARLDELLFSAILESHDARKEHKQFVAELKANDINVVELIDLVAETYDLASQEAKDKLIEEFLEDSEPVLSEEHKVVVRNFLKAKKTSRELVEIMMAGITKYDLGIEADHELIVDPMPNLYFTRDPFASVGNGVTIHYMRYKVRQRETLFSRFVFSNHPKLINTPWYYDPSLKLSIEGGDVFIYNNDTLVVGVSERTDLQTVTLLAKNIVANKECEFKRIVAINVPKWTNLMHLDTWLTMLDKDKFLYSPIANDVFKFWDYDLVNGGAEPQPVENGLPLEGLLQSIINKKPVLIPIAGEGASQMEIERETHFDGTNYLAIRPGVVIGYSRNEKTNAALEAAGIKVLPFHGNQLSLGMGNARCMSMPLSRKDVKW
# modifications: ADI-ABD, Synthesized in the Lab
# B2: BHA: arginase-ABD fusion protein, SEQ ID NO: 75 (protein)
# chain: MKPISIIGVPMDLGQTRRGPDMGPSAMRYAGVIERLERLHYDIEDLGDIPIGKAERLHEQGDSRLRNLKAVAEANEKLAAAVDQVVQRGRFPLVLGGDHSIAIGTLAGVAKHYERLGVIWYDAHGDVNTAETSPSGNIHGMPLAASLGFGHPALTQIGGYCPKIKPEHVVLIGVRSLDEGEKKFIREKGIKIYTMHEVDRLGMTRVMEETIAYLKERTDGVHLSLDLDGLDPSDAPGVGTPVIGGLTYRESHLAMEMLAEAQIITSAEFVEVNPILDERNKTASVAVALMGSLFGEKLMHHHHHHAQHDEAVDANSLAEAKVLANRELDKYGVSDYYKNLINNAKTVEGVKALIDEILAALP
# modifications: BHA Fusion Protein, Synthesized in the Lab
# B3: PEGylated His-rhArg: PEGylated His-tagged recombinant human arginase (SEQ ID NO: 101) (protein)
# chain: MHHHHHHMSAKSRTIGIIGAPFSKGQPRGGVEEGPTVLRKAGLLEKLKEQECDVKDYGDLPFADIPNDSPFQIVKNPRSVGKASEQLAGKVAEVKKNGRISLVLGGDHSLAIGSISGHARVHPDLGVIWVDAHTDINTPLTTTSGNLHGQPVSFLLKELKGKIPDVPGFSWVTPCISAKDIVYIGLRDVDPGEHYILKTLGIKYFSMTEVDRLGIGKVMEETLSYLLGRKKRPIHLSFDVDGLDPSFTPATGTPVVGGLTYREGLYITEEIYKTGLLSGLDIMEVNPSLGKTPEEVTRTVNTAVAITLACFGLAREGNHKPIDYLNPPK
# modifications: PEGylated; His-rhArg, Synthesized in Lab
# B4: BAH: arginase-ABD fusion protein, SEQ ID NO: 76 (protein)
# chain: MKPISIIGVPMDLGQTRRGPDMGPSAMRYAGVIERLERLHYDIEDLGDIPIGKAERLHEQGDSRLRNLKAVAEANEKLAAAVDQVVQRGRFPLVLGGDHSIAIGTLAGVAKHYERLGVIWYDAHGDVNTAETSPSGNIHGMPLAASLGFGHPALTQIGGYCPKIKPEHVVLIGVRSLDEGEKKFIREKGIKIYTMHEVDRLGMTRVMEETIAYLKERTDGVHLSLDLDGLDPSDAPGVGTPVIGGLTYRESHLAMEMLAEAQIITSAEFVEVNPILDERNKTASVAVALMGSLFGEKLMAQHDEAVDANSLAEAKVLANRELDKYGVSDYYKNLINNAKTVEGVKALIDEILAALPHHHHHH
# modifications: BAH Fusion Protein, Synthesized in the Lab
# B5: N-ABD094-rhArg-Co^2+: SEQ ID NO: 50 (cobalt substituted); Mn^2+ substituted with Co^2+ in the ABD-rhArg fusion protein (protein)
# chain: MHHHHHHDEAVDANSLAEAKEAANAELDSYGVSDFYKRLIDKAKTVEGVEALKDAILAALPSGSNNNNNNGSGGMSAKSRTIGIIGAPFSKGQPRGGVEEGPTVLRKAGLLEKLKEQECDVKDYGDLPFADIPNDSPFQIVKNPRSVGKASEQLAGKVAEVKKNGRISLVLGGDHSLAIGSISGHARVHPDLGVIWVDAHTDINTPLTTTSGNLHGQPVSFLLKELKGKIPDVPGFSWVTPCISAKDIVYIGLRDVDPGEHYILKTLGIKYFSMTEVDRLGIGKVMEETLSYLLGRKKRPIHLSFDVDGLDPSFTPATGTPVVGGLTYREGLYITEEIYKTGLLSGLDIMEVNPSLGKTPEEVTRTVNTAVAITLACFGLAREGNHKPIDYLNPPK
# modifications: Co2+ substituted for Mn2+; N-ABD094-rhArg, Synthesized in the Lab
# notes: Mn^2+ substituted with Co^2+ in the ABD-rhArg fusion protein
# Legend:
# [1] = Daily food intake / 7-day intermittent fasting cycle in mice; format: in vivo, mouse
# Excerpt: One of the most noticeable effects of intermittent fasting is reduction of bodyweight. […] Specifically, C57BL/6J, which is the most commonly used mouse strain for polygenic obesity model, was used in the study. It is well-reported that C57BL/6J male mice feeding on a high-fat diet will have prominent weight gain, become obese and develop hyperinsulinemia, hyperglycemia, impaired glucose tolerance and insulin resistance [Gallou-Kabani et al., 2007, Obesity 15(8):1996-2005]. Obesity was induced in C57BL/6J male mice via feeding ad libitum a high-fat diet containing 60 kcal % fat (HFD; Research Diets, D12492) for 12-14 weeks starting from 5-week old. These mice are referred as diet-induced obese (DIO) mice. DIO mice were stratified according to bodyweight into 2 groups. […] Both groups of mice continued to feed ad libitum on the HFD throughout the treatment period. One group of age-matched C57BL/6J male mice feeding ad libitum on an ordinary rodent chow diet (CD; LabDiet, 50IF/6F) and injected with vehicle served as the lean control [CD (vehicle) group]. Food intake and bodyweight of mice were measured daily. […] DIO mice were injected with rhArg on Day 0, which was Day 7 of the previous cycle. Similarly, Day 7 of the cycle shown in FIG. 1B was Day 0 of the next cycle. […] Bodyweight gain is one of the biomarkers related to aging.
# C57BL/6J male mice were fed a high-fat diet from 5-week old for 12 weeks. They were then stratified into 3 groups according to their bodyweight and individually caged: (i) one group of mice received i.p. injection of 600 U N-ABD094-rhArg (SEQ ID NO: 50) once a week [HFD (rhArg) group] and was fed ad libitum the HFD for 5 weeks; (ii) one group of mice received i.p. injection of saline once a week, and was fed a predetermined amount of HFD on each day to artificially create a 7-day intermittent fasting cycle that mimics the pattern of food intake of mice administered once a week with rhArg [HFD (artificial IF) group)]; (iii) one group of mice was injected with saline once a week and was fed ad libitum the HFD [HFD (vehicle) group].
# [2] = Bodyweight of treated mice; format: in vivo, mouse
# [3] = Half-life / therapeutic duration in circulation; set-up: species or system mice; conditions: mouse, in vivo
# Excerpt: As used herein, the term “half-life” or “½-life” refers to the time that would be required for the concentration of an agent, e.g., a fusion protein or arginine depleting agent as described herein, to fall by half in vitro or in vivo, for example, after injection into a mammal. In certain instances, the concentration of plasma arginine, after injection, is used herein as a proxy indicator of the half-life of the agent. In such instances, the term “therapeutic duration” is used to refer to the length of time a specified dosage of the arginine depleting agent is able to maintain the plasma concentration of arginine below a specified threshold concentration that a desired therapeutic effect is observed. In certain embodiments, the threshold concentration of plasma arginine is below 50 μM, below 40 μM, below 30 μM, below 20 μM, below 10 μM, below 5 μM, below 3 μM, or at a concentration below the detection limit of conventional analytical instrumentation.
# Importantly, the present invention used a new ABD fusion approach to join an ABD and an arginase together so that arginase activity can be retained. Stable and soluble arginase-ABD fusion molecules that can bind to FcRn in a pH-dependent manner were successfully generated, allowing for efficient endosomal recycling. […] Taken together, a variety of different approaches are available for fine-tuning the pharmacokinetic properties of arginases, ensuring appropriate residence time in circulation for different disease conditions. Another key issue in the development of any therapeutic protein is to minimize immunogenicity to avoid adverse effects. Thus, the observed low immunogenicity of human arginase and the successful deimmunization of ABD (e.g. ABD094), which was also used in the present disclosure as gene fusion partner to extend the in vivo half-life, are important.
# [4] = Insulin tolerance test (ITT); format: in vivo, mouse; conditions: DIO C57BL/6J male mice on HFD; about 250 U once a week; at 7 week
# Excerpt: In terms of reversing insulin resistance on pre-existing obese mice, insulin tolerance test (ITT) was employed (FIG. 59).
# In terms of reversing insulin resistance on pre-existing obese mice, insulin tolerance test (ITT) was employed (FIG. 68A).
# [5] = Glucose tolerance test (GTT); format: in vivo, mouse; conditions: DIO C57BL/6J male mice on HFD; about 250 U once a week; at 6 week
# [6] = Fat pad and organ mass at end of treatment; format: in vivo, mouse; conditions: DIO C57BL/6J male mice on HFD; about 250 U once a week, 8 weeks
# [7] = DIO C57BL/6J male mice on HFD, about 250 U i.p. once a week, 8 weeks
# [8] = DIO C57BL/6J male mouse on HFD, 50 U i.p. once a week, 2 weeks, n=1
molecule,measurement,setting,value
B1,Time of minimum level of food intake in the cycle,"[1]; DIO C57BL/6J male mice on HFD, i.p. once a week",after the first day
same,Pattern of food intake (intermittent fasting cycle),"[1]; DIO C57BL/6J male mouse on HFD, 5 U i.p. once a week, 2 weeks, n=1",induce a 7-day intermittent fasting cycle
same,Bodyweight reached under treatment,"[2]; DIO C57BL/6J male mouse on HFD, 5 U i.p., first cycle, from 47 g in 2 days, n=1",about 44 g
B2,Therapeutic duration (and half-life),[3],surprisingly high therapeutic duration (and half-life)
B3,Pattern of food intake (intermittent fasting cycles),[1]; [7],repetitive 7-day intermittent fasting cycles
same,"Total food intake per week, less than HFD (vehicle) group",[1]; [7],about 28%
same,Bodyweight reached under treatment,"[2]; DIO C57BL/6J male mice on HFD, about 250 U i.p. once a week, from 50 g within 8 weeks",30 g
same,Insulin sensitivity in ITT,[4],marked increase in insulin sensitivity
same,Glucose tolerance in GTT,[5],significantly improved glucose tolerance
same,"Fat pad mass (perirenal, inguinal WAT, interscapular BAT) and liver mass",[6],dramatically reduced to a weight similar to that of the vehicle-treated lean control mice
same,Kidney and heart mass,[6],significantly reduced
B4,Therapeutic duration (and half-life),[3],surprisingly high therapeutic duration (and half-life)
B5,Length of fasting period in the 7-day intermittent fasting cycle,[1]; [8],4 days
same,Pattern of food intake (intermittent fasting cycle),[1]; [8],induce a 7-day intermittent fasting cycle
same,Bodyweight reached under treatment,"[2]; DIO C57BL/6J male mouse on HFD, 50 U i.p. once a week, from 45 g within 2 weeks, n=1",32 g
